These results are taken from publication PMC13225219.

This assay concerns the target GST-Drak (435-532) (Drosophila melanogaster) (UniProt Q0KHT7). Put plainly: pull-down; GST-Drak on glutathione agarose; 100 µl of 0.2-10 µM Filamin fragment, 20 min on ice in 20 mM Tris-HCl pH 7.5, 100 mM NaCl, 1 mM DTT; washed with PBS; stain-free SDS-PAGE, Filamin to Drak band ratio.
Sequence of UniProt Q0KHT7 (Q0KHT7 435-532): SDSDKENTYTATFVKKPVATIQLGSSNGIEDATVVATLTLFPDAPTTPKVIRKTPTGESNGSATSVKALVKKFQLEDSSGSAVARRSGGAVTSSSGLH

For the substance “Filamin-open (five-domain Drosophila Filamin fragment Cher15-19openMSR) (domain or fragment)”, the fold bound against the wild-type Filamin fragment was 10 fold.
